The text below walks through data of US20210309720A1 (MIT, published 2021).

Assay [1] has as its target T1, IL8 (UniProt P10145 28-99, limits assumed).
T1 sequence (looked up): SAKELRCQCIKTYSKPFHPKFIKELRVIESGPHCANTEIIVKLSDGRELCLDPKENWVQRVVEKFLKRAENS
Description: MicroScale Thermophoresis, 5 nM NT647-labeled receptor against a gradient of ligand, 25 C. As to the method:
(§1) The affinity of QTY modified cytokine receptor fused with Fc of IgG for their respective native ligands was measured using MicroScale Thermophoresis (MST). Changes in thermophoretic movement for labeled proteins upon ligand-binding were recorded and plotted as a function of ligand concentration.
(§2) MicroScale Thermophoresis (MST) is an optical method detecting changes in thermophoretic movement and TRIC of the protein-attached fluorophore upon ligand binding. Active labelled proteins contribute to the thermophoresis signal upon ligand binding. […] Herein ligand binding experiments were carried out with 5 nM NT647-labeled protein in 1×PBS, 10 mM DTT buffer with different concentration of arginine, against a gradient of respective ligands on a Monolith NT.115 pico instrument at 25° C. Synthesized receptors were labeled with Monolith NT™ 2nd generation protein labeling kit RED-NHS (NanoTemper Technologies) so as to obtain unique fluorescent signals. MST time traces were recorded and analyzed to obtain the highest possible signal-to-noise levels and amplitudes, >5 Fnorm units. The recorded fluorescence was plotted against the concentration of ligand, and curve fitting was performed using the Kd fit formula derived from the law of mass action. For clarity, binding graphs of each independent experiment were normalized to the fraction bound (0=unbound, 1=bound). […]
Background: Microscale thermophoresis detects binding through changes in fluorescence in a small temperature gradient.

In assay [2] the target is T2, CCL25 (UniProt O15444 24-150).
T2 sequence (looked up): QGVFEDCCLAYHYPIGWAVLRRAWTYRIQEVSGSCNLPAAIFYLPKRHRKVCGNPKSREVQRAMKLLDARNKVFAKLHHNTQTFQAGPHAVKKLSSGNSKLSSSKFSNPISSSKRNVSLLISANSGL
The assay is described as above. Here is the method:
as §1, §2

B1: CXCR2-QTY Fc (Fc fusion)
chain: MEDFNMESDSFEDFWKGEDLSNYSYSSTLPPFLLDAAPCEPESLEINKYYTTTTYAQTYQQSQQGNSQTMQTTQYSRVGRSVTDTYQQNQAQADQQYAQTQPTWAASKVNGWIFGTFLCKTTSQQKETNYYSGTQQQACTSTDRYLAIVHATRTLTQKRYLVKYTCQSTWGQSQQQAQPTQQYRRTVYSSNVSPACYEDMGNNTANWRMQQRTQPQSYGYTQPQQTMQYCYGFTLRTLFKAHMGQKHRAMRTTYATTQTYQQCWQPYNQTQQADTLMRTQVIQETCERRNHIDRAQDATETQGTQHSCQNPQTYAYTGQKFRHGLLKILAIHGLISKDSLPKDSRPSFVGSSSGHTSTTLTETSQVAPAHHHHHHHHHHGSKLVDPRGPTIKPCPPCKCPAPNLLGGPSVFIFPPKIKDVLMISLSPIVTCVVVDVSEDDPDVQISWFVNNVEVHTAQTQTHREDYNSTLRVVSALPIQHQDWMSGKEFKCKVNNKDLPAPIERTISKPKGSVRAPQVYVLPPPEEEMTKKQVTLTCMVTDFMPEDIYVEWTNNGKTELNYKNTEPVLDSDGSYFMYSKLRVEKKNWVERNSYSCSVVHEGLHNHHTTKSFSRTPGK
modifications: labeled with NT647 fluorescent dye (Monolith NT 2nd generation protein labeling kit RED-NHS)
notes: also called Fc fusion QTY CXCR2 variant receptor protein
Broadly, the Kd is the concentration at which binding is half-saturated. Higher therefore signals weaker binding. As to B1, in assay [1], the affinity, expressed as Kd, was 0.0603 µM.

B2: CCR9-QTY Fc (Fc fusion)
chain: MTPTDFTSPIPNMADDYGSESTSSMEDYVNFNFTDFYCEKNNVRQFASHYQPPQYWQTYTTGAQGNSQTTQTYWYCTRVKTMTDMYQQNQATADQQYQTTQPYWATAAADQWKFQTFMCKTTNSMYKMNYYSCTQQTMCTSTDRYTATAQAMRAHTWREKRQQYSKMTCYTTWTQAAAQCTPETQYSQIKEESGIAICTMVYPSDESTKQKSATQTQKTTQGYYQPYTTMACCYTTTTHTQTQAKKSSKHKAQKTTTTTQTTYTQSQYPYNCTQQTQTTDAYAMFISNCATSTNTDTCYQTTQTTAYYHSCQNPTQYTYTGERFRRDLVKTLKNLGCISQAQWVSFTRREGSLKLSSMLLETTSGALSLTETSQVAPAHHHHHHHHHHTETSQVAPAHHHHHHHHHHGSKLVDPRGPTIKPCPPCKCPAPNLLGGPSVFIFPPKIKDVLMISLSPIVTCVVVDVSEDDPDVQISWFVNNVEVHTAQTQTHREDYNSTLRVVSALPIQHQDWMSGKEFKCKVNNKDLPAPIERTISKPKGSVRAPQVYVLPPPEEEMTKKQVTLTCMVTDFMPEDIYVEWTNNGKTELNYKNTEPVLDSDGSYFMYSKLRVEKKNWVERNSYSCSVVHEGLHNHHTTKSFSRTPGK
modifications: labeled with NT647 fluorescent dye (Monolith NT 2nd generation protein labeling kit RED-NHS)
notes: also called Fc fusion QTY CCR9 variant receptor protein
Regarding B2, the affinity in assay [2], expressed as Kd, was 0.0372 µM.
